The nanobody polyreactivity screen of Harvey et al. (2022)

Assay: yeast display, Sf9 membrane polyspecificity reagent, FACS + sequencing; frameworks hold sequencing errors
In short: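 A synthetic nanobody library was expressed on Saccharomyces cerevisiae BJ5465 by galactose induction for 36–48 hours. The library was stained for 1 hour at 4 °C with 10% biotinylated, detergent-solubilized Sf9 membrane reagent and enriched with streptavidin microbeads before FACS. Low and high (top ~1%) gates were set on anti-HA fluorescence for expression and streptavidin fluorescence for reagent binding, and each polyreactivity label reflects the gate of origin.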

Sequence	polyreactivity (PSR sort gate)
QVQLVESGGGLVQAGGSLRLSCAASGISFYRYAMGWYRQAPGKERELVAAITGSGDSTYYADSVKGRFSISRDNAKNTVYLQMNSLKPEDTAVYYCNTDYGRRYDYWGQGTQVTVSS	high polyreactivity
QVQLVESGGGLVQAGGSLRLSCAASGITFAEYAMGWYRQAPGKERELVAAINGGGGSTYYADSVKGRFTISRDNAKNTVYLQMNSLKPEDTAVYYCAARYRGWSGGYDYWGQGTQVTVSS	high polyreactivity
QVQLVESGGGLVQAGGSLRLSCAASGITFAFYAMGWYRQAPGKERELVAAISWSGTRTYYADSVKGRFTISRDNAKNTVYLQMNSLKPEDTAVYYCAADFQAGDKLYDYWGQGTQVTVSS	low polyreactivity
QVQLVESGGGLVQAGGSLRLSCAASGITFAFYAMGWYRQAPGKERELVAAISWSGTRTYYADSVKGRFTISRDNAKNTVYLQMNSLKPEDTAVYYCAADYQAGYKMFDYWGQGTQVTVSS	low polyreactivity
QVQLVESGGGLVQAGGSLRLSCAASGITFAPYAMGWYRQAPGKERELVATITWSGGSTYYADSVKGRFTISRDNAKNTVYLQMNSLKPEDTAVYYCAAYNDTVPSAAHIYESWGQGTQVTVSS	low polyreactivity
QVQLVESGGGLVQAGGSLRLSCAASGITFARYAMGWYRQAPGKARELVAAISRSGGSTYYADSVKGRFTSSRDNAKNTVYLQMNSLKPEDSAVYYCAAGGRVRRNKFDDWGQGTQVTVAS	high polyreactivity
QVQLVESGGGLVQAGGSLRLSCAASGITFARYAMGWYRQAPGKETELVAALSKRGGRTYYADSVKGRFTISRDNAKNTVYLQMNSLKPEDTAVYYCATDYYVSTDYNYWGQGTQVTVSS	high polyreactivity
QVQLVESGGGLVQAGGSLRLSCAASGITFAWYAMGWYRQAPGKERELVAAISRSGGSTYYADSVKGRFTISRDNAKNTVYLQMNSLKPEDTAVYYCADRASPRFNYWGQGTQVTVSS	high polyreactivity
QVQLVESGGGLVQAGGSLRLSCAASGITFAYYVKGWYRQAPGKERQLVAAITRSGDITSYADSVKGRFTISRDNAKNTVYLQMNSLKPEDTAVYYCNARRGYQSRRYNYWGQGTQVTVSS	high polyreactivity
QVQLVESGGGLVQAGGSLRLSCAASGITFDENTMGWYRQGPGKERELVAAITEIGGSTYYADSVKGRFTISRDNAKNTVYLQMHSLKPEDTAVYYCNAARWVGRFVDYEYWGQGTQVTVSS	low polyreactivity
QVQLVESGGGLVQAGGSLRLSCAASGITFDGYAMGWDRQAPGKERELVAVISWSAGSTYADSVKGRFTISRDNAKNTVYLQMNSLKPEDTAVYYGNARTTYRSSRYRRYEYWGQGTQVTVSS	high polyreactivity
QVQLVESGGGLVQAGGSLRLSCAASGITFDGYAMGWYRQAPGKERELVAAIRSSGGSTYYADSVKGRFTISRDNAKNTVYLQMNSLKPEDTAVYYCATDKVTVWGWKYDSWGQGTQVTVSS	low polyreactivity
QVQLVESGGGLVQAGGSLRLSCAASGITFDGYGMGWYRQAPGKERQLVAAITYSGGRTYYADSVKGRFTISRDIEKNTVYLQMNSLKPEDTAVYYCAVVSRRLYEYDYWGQGTQVTVSS	high polyreactivity
QVQLVESGGGLVQAGGSLRLSCAASGITFDHYAMGWYRQAPGKEREFVAAIDDIGGDTYYADSVKGRFTISRDNAKNTVYLQMNSLKPEETAVYYCATDYPWIFGHFLMDYWGQGTQVTVSS	low polyreactivity
QVQLVESGGGLVQAGGSLRLSCAASGITFDLYAMGWYRQAPGKEREFVATISWTGGTTYYADSVKGRFTISRDNAKNTVYLQMNSLKPEDTAVYYCNKGSDFFWYDYDYWGQGTQVTVSS	low polyreactivity
QVQLVESGGGLVQAGGSLRLSCAASGITFDLYDMGSYRQAPGKERELVAAITDADSTYYADSVKGRFTISRDNAKNTVLLQMNSLKPEDTAVYYCAATSYSHTKIRYDYWVQGTQVTVSS	low polyreactivity
QVQLVESGGGLVQAGGSLRLSCAASGITFDQYVMGWYRQAPGKERELVAAIDRSDGITYYADSVKGRFTISRDNAKNSVYLQMNSLTPEDTAVYYCAAVTYTPVYGGYYWDGGYWGQGTQVTVSS	low polyreactivity
QVQLVESGGGLVQAGGSLRLSCAASGITFDTYAMGWYRQAPGKERELVAAISSSGSTNYADSVKGRFTISRDNAKNTVYLQMNSLKPEDTAVYYCATDYWPGTGGNYDYWGQGTQVTVSS	low polyreactivity
QVQLVESGGGLVQAGGSLRLSCAASGITFDVNAMGWYRPAPGKERELVAAITAGGNTYYADSVKGRFTISRDNAKNTVYLQMNSLKPEDTAVYYCAAVSTSLYWAGYDYWGQGTQVTVSS	low polyreactivity
QVQLVESGGGLVQAGGSLRLSCAASGITFDWYTLGWYSQAPGKERELVAAISRNGGSTYYADSVKGRFTISRDNAKNTVYLQMNSLKPEDTAVYYCAAPLTYLYYGYDYWGQGTQVTVSS	high polyreactivity
QVQLVESGGGLVQAGGSLRLSCAASGITFDYYAMGWYRQAPGKERELVADISSSGGSTYYADSVKGRFTISRDNAKNSVYLQMNSLKPEDTAVYYCAAVVTKYPTTGFGYWGQGTQVTVSS	high polyreactivity
QVQLVESGGGLVQAGGSLRLSCAASGITFDYYAMGWYRQAPGKERELVASISSDSSTYYADSVKGRFTISRDNAKNTVYLQMNSLKPEDTAVYYCNAGDTTFPFYYWGQGTQVTVSS	low polyreactivity

Sequence	polyreactivity (PSR sort gate)
QVQLVESGGGLVQAGGSLRLSCAASGITFEDYAMGWYRQAPGKERELVAAISWSGDITYYADSVKGRFTISRDNAKNTVYLQMNSLKPEDTAVYYCAADLSPYGYDYWGQGTQVTVSS	low polyreactivity
QVQLVESGGGLVQAGGSLRLSCAASGITFELNTMGWYRQAPGKEMELVAVITQNGGSTYYADSVKGRFTISRDNAKNTVYLQMNSLKPEDTAVYYCAATYVWSYLYLIRFYYWGQGTQVTVSS	high polyreactivity
QVQLVESGGGLVQAGGSLRLSCAASGITFETYAMGWYRQAPGKERELVAAITYSGGRTYYADSVKGRFTISRDNAKNTVYLQMNSLKPEDTAVYYCNARKYVGFWSRYDYWGQGTQVTVSS	high polyreactivity
QVQLVESGGGLVQAGGSLRLSCAASGITFEVNAMGWYRQAPGKERELVAAISRSAGSTYYADSVKGRFTISRDNAKNTVYLQMISLKPEDTAVYYCATALRYARSRNRFYYWGQGTQVSVSS	high polyreactivity
QVQLVESGGGLVQAGGSLRLSCAASGITFEVYAMAWYRQAPATERELVAVITSVGSTNYADSVKGRFTISRDNAKNTVYLQMNSLKTEDNAVYYCAGEKWTVRRFNPYTYYRYDYWGQGTQVTVSS	low polyreactivity
QVQLVESGGGLVQAGGSLRLSCAASGITFEVYDMGWYRQAPGKERELVAAITWSAGRTYYADSVKGRFTISRDNAKNTVYLQMNSLKPEDTAVYYCAAEVYYYYRTYSYIWNRVDYDYWGQGTQVTVSS	low polyreactivity
QVQLVESGGGLVQAGGSLRLSCAASGITFEYYAMGWYRQAPGKERELVAAITWSGGITYYADSVKGRFTISRDNAKNTVYLQMNSLKPEDTAVYYCNVYVSAGEEDEYWGQGTQVTVSS	low polyreactivity
QVQLVESGGGLVQAGGSLRLSCAASGITFFGKYAMGWYRQAPGKERELVAAISWSGGRTYYADSVKGRFTISRDNAKNTVYLQMNSLKPEDTAVYYCAVYPRDAERYGYWGQGTQVTVSS	high polyreactivity
QVQLVESGGGLVQAGGSLRLSCAASGITFFGYAMGWYRQAPGKERELVAAISYSGGSTYYADSVKGRFTISRDNAKNTVYLQMNSLKPEDTAVYYCNARQAGTRYKYGYYGRYYWGQGTQVTVSS	high polyreactivity
QVQLVESGGGLVQAGGSLRLSCAASGITFFLYAMGWYRQAPGKERELVAVISASGGSTYYADSVKGRFTISRDNAKNTVYLQMNSLKPDDTAVYYCNAYGAFIGYDSWGQGTQVTVSS	high polyreactivity
QVQLVESGGGLVQAGGSLRLSCAASGITFFRNAMGWYRQAPGKERELVAAISRGGGSTYYADSVKGRFTISRDNAKNTVYLQMNSLKPEDTAVYYCAEYKYGTGVKMDYWGQGTQVTVSS	high polyreactivity
QVQLVESGGGLVQAGGSLRLSCAASGITFFRYAMGWYRQAPGKEREFVAAISGRGGSTYYADSVKGRFTISRDNAKNTVYLQMNSLKPEDTAVYYCATRRSYLADYWGQGTQVTVSS	high polyreactivity
QVQLVESGGGLVQAGGSLRLSCAASGITFFTYGLGWYRQAPGKERELVASINWSGGTYYADSVKGRFTISRDKAKNTVYLQMNSLKPEDTAVYYCAAETHVESGSRDFYTEDYWGQGTQVTVSS	low polyreactivity
QVQLVESGGGLVQAGGSLRLSCAASGITFFWNAMGWYRQAPGKERELVAAISSGAGTTYADSVKGRFTISRDNAKNTVYLQMNSLKPEDTAVYYCAARRYRYAYGPYNYWGQGTQVTVSS	low polyreactivity
QVQLVESGGGLVQAGGSLRLSCAASGITFGAYAMGWYRQAPGKERELVASISSSGSTYADSVKGRFTISRDNAKNTVYLQMNSLKPEDTGVYYCNAVGFQANDYNYWGQGTQVTVSS	low polyreactivity
QVQLVESGGGLVQAGGSLRLSCAASGITFGDNTMGWYRQAPGKERELVAAITYSSTSTYYADSVKGRFTISRDNPKNTVYLQMNSLKPEDTAVYYCAAEGPVDVVSTDYDYWGQGTQVTVSS	low polyreactivity
QVQLVESGGGLVQAGGSLRLSCAASGITFGDYAMGWNRQAPGKERELVAGINWSGDGTYYADSVKGRFTISRDNAKITVYLQMYSLKPEDTAVYYCAAETFYDYGGYDYWGQVTQVTVSS	low polyreactivity
QVQLVESGGGLVQAGGSLRLSCAASGITFGDYTMGWYRQAPGKERELVAGINWSGDGTYYADSVKGRFTISRDNAKNTVYLQMNSLKPEDTAVYYCAAETFYDYGGYDYWGQGTQVTVSS	low polyreactivity
QVQLVESGGGLVQAGGSLRLSCAASGITFGNYAMGWYRQAPGKERELVAAISQSSGRTYYADSVKGRFTISRDNAKNTVYLQMNSLKPEDTAVYYCAARTRGSSRGDYDYWGQGTQVTVSS	high polyreactivity
QVQLVESGGGLVQAGGSLRLSCAASGITFGPNAMGWYRQAPGKERELVAAISWRGGSTYYADSVKGRFTISRDYAKNTVYLQMNSLKPEDTAVYYCAKVQIPASYIRYDYWGQGTQVTVSS	low polyreactivity
QVQLVESGGGLVQAGGSLRLSCAASGITFGPYAMGWYRQAPGKERELVAAISSGGRTNYADSVKGRFTISRDNAKNTVYLQMNSLKPEDTAVYYCAARFAYFREYGTYYYWGQGTQVTVSS	high polyreactivity
